According to US20260209363A1 (Chugai, published 2026):

Tests used:
[1] = biological target: T1, Mouse MOG (R&D system) (mouse, UniProt Q61885 29-156, limits assumed); assay: plasma MOG clearance in mice after IC17 0.2 mg/kg IV and MOG 0.021 mg/kg IV
T1 construct: also called mouse soluble MOG; soluble MOG
T1 sequence (looked up): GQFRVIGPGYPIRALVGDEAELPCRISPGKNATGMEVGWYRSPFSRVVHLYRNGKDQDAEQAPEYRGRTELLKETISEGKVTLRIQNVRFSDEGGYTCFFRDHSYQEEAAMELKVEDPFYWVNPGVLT

[2] = biological target: T2, IL6R on IL6R-CHO cells (CHO cells forced to express IL6R) (UniProt P08887 20-468, limits assumed); assay: flow cytometry on IL6R-CHO cells, 4 degrees C 60 min, detection with Alexa Fluor 647 anti-dGK antibody; (a) MSA-free medium, (b) medium with 50 mg/mL MSA, (c) mouse plasma [a), (b), (c]
T2 construct: whole, on cells; also called membrane-type IL6R; IL6R on the cell membrane
T2 sequence (looked up): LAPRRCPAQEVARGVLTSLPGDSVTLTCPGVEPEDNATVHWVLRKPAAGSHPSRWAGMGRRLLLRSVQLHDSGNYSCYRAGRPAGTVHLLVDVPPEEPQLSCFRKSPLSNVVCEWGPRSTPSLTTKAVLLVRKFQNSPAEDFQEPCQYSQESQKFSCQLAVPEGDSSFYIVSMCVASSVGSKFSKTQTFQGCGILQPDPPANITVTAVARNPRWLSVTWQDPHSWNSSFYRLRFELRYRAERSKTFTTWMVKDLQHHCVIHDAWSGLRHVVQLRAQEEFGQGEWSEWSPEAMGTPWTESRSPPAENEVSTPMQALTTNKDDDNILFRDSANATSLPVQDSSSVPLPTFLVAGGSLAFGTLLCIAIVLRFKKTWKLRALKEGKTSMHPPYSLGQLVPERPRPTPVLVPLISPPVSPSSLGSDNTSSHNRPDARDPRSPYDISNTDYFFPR
Procedure: Binding ability of albumin switch molecules against the membrane-type antigens were verified. Specifically, the antibodies (10 micro g/mL) indicated below were incubated with IL6R-CHO cells (Chiome Bioscience, 2×10⁵ cells/well) in mouse serum albumin (MSA)-free CHO-S-SFM II medium (Thermo Fisher Scientific), 50 mg/mL Recombinant MSA (Albumin Bioscience)-containing medium, or mouse plasma (6-week-old male C57BL/6J mouse) at 4 degrees C. for 60 minutes. Antibodies used for the reaction were IC17, H54//IC17, and ABD094(H/L)-H54//IC17. After the reaction, the cells were washed three times with PBS(−). Addition of Alexa Fluor 647-labeled anti-dGK antibody (10 micro g/mL) was followed by incubation at 4 degrees C. for 30 minutes. Lastly, the cells were suspended in PBS(−) and analyzed by FACSCantoII (BD).

[3] = biological target: T3, MOG on mouse oligodendrocytes (mouse, UniProt Q61885 29-246); assay: flow cytometry on mouse brain cell suspension, O4-positive/CD45-negative oligodendrocyte fraction, 4 degrees C 60 min, detection with Alexa Fluor 647 anti-delta GK antibody; (a) MSA-free DPBS, (b) DPBS with 50 mg/mL MSA, (c) mouse plasma [a), (b), (c]
T3 construct: whole, on cells; also called MOG on the cell membrane; MOG expressed by cells in the brain
T3 sequence (looked up): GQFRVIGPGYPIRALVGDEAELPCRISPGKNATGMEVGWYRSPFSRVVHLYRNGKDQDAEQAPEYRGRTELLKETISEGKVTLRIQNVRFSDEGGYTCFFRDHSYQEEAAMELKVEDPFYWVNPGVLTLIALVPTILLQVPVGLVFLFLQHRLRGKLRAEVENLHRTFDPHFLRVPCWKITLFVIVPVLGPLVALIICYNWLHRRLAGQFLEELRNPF
Procedure: The binding ability of albumin switch molecules against the membrane-type antigens were examined. Specifically, the antibodies (10 micro g/mL) indicated below were incubated with mouse brain cell suspension (2×10⁵ cells/well), in mouse serum albumin (MSA)-free DPBS (Thermo Fisher Scientific), DPBS containing Recombinant MSA (Albumin Bioscience) at 50 mg/mL, or mouse plasma (6 weeks old, male C57BL/6J mouse) at 4 degrees C. for 60 minutes. The mouse brain cell suspension was prepared from mouse brain using Adult Brain Dissociation Kit (Miltenyi Biotec) and gentleMACS (Miltenyi Biotec). Antibodies used for the reaction were IC17, MOG//IC17, and ABD094(H/L)-MOG//IC17. After the reaction, the cells were washed once with DPBS. […] Lastly, the cells were suspended in DPBS and analyzed by FACSCantoII (BD). The fluorescence intensities of Alexa Fluor 647 in the MOG-expressing oligodendrocyte O4-positive/CD45-negative fractions were measured (Schroeter, C. B. et al., One Brain-All Cells: A Comprehensive Protocol to Isolate All Principal CNS-Resident Cell Types from Brain and Spinal Cord of Adult Healthy and EAE Mice. Cells 2021, 10(3), 651).

[4] = biological target: T4, human soluble IL-6R (human, UniProt P08887 20-357, limits assumed); assay: Gyrolab xP complex assay in C57BL/6J mouse plasma: antibody 0.15 µg/mL and human soluble IL-6R 0.15 µg/mL (final), capture by biotinylated anti-human IL-6R antibody, detection with AF647-anti-delta GK; signal as % of H54//IC17
T4 construct: Soluble form; also called sIL6R; Human IL-6R
T4 sequence (looked up): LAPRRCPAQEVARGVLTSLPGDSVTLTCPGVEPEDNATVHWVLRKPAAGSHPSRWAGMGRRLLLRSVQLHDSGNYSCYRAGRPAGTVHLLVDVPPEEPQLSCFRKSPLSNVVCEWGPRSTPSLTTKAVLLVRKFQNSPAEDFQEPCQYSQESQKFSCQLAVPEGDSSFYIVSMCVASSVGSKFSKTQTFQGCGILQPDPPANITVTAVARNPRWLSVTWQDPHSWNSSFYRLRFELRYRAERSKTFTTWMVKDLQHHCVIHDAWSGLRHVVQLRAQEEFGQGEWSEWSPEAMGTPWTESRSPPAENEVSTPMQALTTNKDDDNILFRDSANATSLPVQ
Procedure: First, to bind the albumin-binding portion to albumin in the plasma, the anti-human IL-6R antibodies (albumin switch molecules) indicated in Example 2 were diluted to 0.6 micro g/mL using C57BL/6J mouse plasma, and then incubated at room temperature for one hour. Next, for binding of the anti-human IL-6R antibody to the target antigen, one equivalent of human soluble IL-6R diluted to 0.6 micro g/mL in mouse plasma was added to the antibody solutions, and then the solutions were incubated at room temperature for one hour.
To detect the antigen-antibody complexes, first, the anti-delta GK antibody (AF647-anti-delta GK) was labeled using an Alexa flour 647 labeling kit (A20186, Thermo Fisher Scientific) according to the attached protocols. […]
Measurement of antigen-antibody complexes was performed using Gyrolab xP. […] The amount of the captured complex was detected by the fluorescence signal of AF647 (Detect PMT 25%). The fluorescence signal of AF647 was analyzed by Gyro Evaluator (version 3.6.2.30, Gyros Protein Technologies).

binding result [1]: no binding
binding result [2]: no binding (tested: 10 µg/mL)
binding result [3]: no binding (tested: 10 µg/mL)
binding result [4]: no binding (tested: 0.15 µg/mL)
B1: IC17 (antibody, human IgG1, kappa, V domains shown)
VH: QVQLQQSGPQLVRPGASVKISCKASGYSFTSYWMHWVNQRPGQGLEWIGMIDPSYSETRLNQKFKDKATLTVDKSSSTAYMQLSSPTSEDSAVYYCALYGNYFDYWGQGTTLTVSS
VL: DIQMTQSSSSFSVSLGDRVTITCKASEDIYNRLAWYQQKPGNAPRLLISGATSLETGVPSRFSGSGSGKDYTLSITSLQTEDVATYYCQQYWSTPYTFGGGTKLEVKR
notes: also called Anti-KLH antibody
